Source: the nanobody polyreactivity screen of Harvey et al. (2022)

Experiment: yeast display, Sf9 membrane polyspecificity reagent, FACS + sequencing; frameworks hold sequencing errors
Method in brief: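 A synthetic nanobody library was expressed on Saccharomyces cerevisiae BJ5465 by galactose induction for 36–48 hours. The library was stained for 1 hour at 4 °C with 10% biotinylated, detergent-solubilized Sf9 membrane reagent and enriched with streptavidin microbeads before FACS. Low and high (top ~1%) gates were set on anti-HA fluorescence for expression and streptavidin fluorescence for reagent binding, and each polyreactivity label reflects the gate of origin.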

Row | Sequence | polyreactivity (PSR sort gate)
1 | QVQLVESGGGLVQAGGSLRLSCAASGSIFDFYAMGWYRQAPGKERELVAAISWSGGNTYYADSVKGRFTISRDNAKNTVYLQMNSLKPEDTAVYYCNRGSIWRLLTGDFDYWGQGTQVTVSS | low polyreactivity
2 | QVQLVESGGGLVQAGGSLRLSCAASGFIFRHNGMGWYRQAPGKERELVAAITKRGGDTYYADSVKGRFTISRDNAKNSVYLQMISLKREDTAVYYCTVDVRYPVSFDYDYWGQGNQVTVSS | low polyreactivity
3 | QVQLVESGGGLVQAGGSLRLSCAASGSIFKTNAMGWYRQAPGKERELVAGISNGGSTNYADSVKGRFTISRDNAKNTVYLQMNSLKPEDTAVYYCAKKGYASRYFIYDYWGQGTQVTVSS | low polyreactivity
4 | QVQLVESGGGLVQAGGSLRLSCAASGSIFKYYTMGWYRQAPGKERELVSGISYRGGSTYYADSVKGRFTISRDNAKNTVYLQMNSLKPEDTAVYYCATGSGFSPRRNTFRYGYWGQGTQVTVSS | high polyreactivity
5 | QVQLVESGGGLVQAGGSLRLSCAASGRTFHYYAMGWYRQAPGKERELVAAISRGGNTYYADSVKGRFTISRDNAKNTVYLQMNSLKPEDTAVYYCAKDNHFEAYRYDYWGQGTQVTVSS | high polyreactivity
6 | QVQLVASAAGLVQAVGSLRLSCAASASTIGYYAMGWSRQAPGKERELVAAISWSGGSTYYADSVKGRFTISRDNAKNTVYLQMNSLKPEDTAVYFCAADTYPDYYLVEYYYWGQGTQVTVSS | low polyreactivity
7 | QVQLVESGGGLVQAGGSLRLSCAASGRIVKYAMGWYRQAPGKERELVAAISSSGGTTYYADSVKGRFTISRDNAKNTVYLQMISLKPEDTAVYYCAAPGTYTSRGSDYWGQGTQVTVSS | high polyreactivity
8 | QVQLVESGGGLVQAGGSLRLSCAASGRTFASNALGWYRQAPGKERELVADISSSGGTTYYADSVKGRFTISRDNAKNTVYLQMNSLKPEDTAVYYCAAVSSQDDPVKAWDYDYWGQGTQVTVSS | low polyreactivity
9 | QVQLVESGGGLVQAGGSLRLSCAASGRIFRYYAMGSYRQAPGKERELVAAISRSGGSTYYADSVKGRFTISRDNAKNTVYLQMNSLKPEDTAVYSCAARLAGRGSSSSRVVRTGGYWGQGTQVTVSS | high polyreactivity
10 | QVQLVESGGGLVQAGGSLRLSCAASGSTYYAYAMGWYRQAPGKEREFVAAISSGGGSTYYADSVKGRFTISRDNAKNTVYLQMNSLKPVDTAVYYCAAVLYYYWRGYGPRSNRYDYWGQGTQVTVSS | high polyreactivity
11 | QVQLVESAGGLVQAGGSLRLSCAASGRTFGRKAMVWSRQAPGERELGAVISRGGSTYYADTVKGRFTISRDNAKNTVYLQMNILKPEDTAVYYCNADTVYTRTGPYDYWGQGTQVTVSS | low polyreactivity
12 | QVQLVESGGGLVQAGGSLRLSCAASGYTSRYYAMGWYRQAPGKERELVAAITSGGSTNYADSVKGRFTISRDNAKNTVYLQMNSLKPEDTAVYYCAKGQYPWSYVLQTYIYDYWGQGTQVTVSS | low polyreactivity
13 | QVQLVESGGGLVQAGGSLRLSCAASGYTFGYYTMGWYRQAPGKERELVASIDSGGGTYYADSVKGRFTISRDNAKNTVYLQMNSLKPEDTAVYYCAARSAILKSGYLMDYWGQGTQVTVSS | low polyreactivity
14 | QVQLVESGGALVQAGGSLRLSCAASRSIFSNAMGWYRQAPRKERELDAAITGRGGRTYYADSVKGRFTISRDNAKYTVYLQMNSLNPEDTAVYYCARDSPWSSRYRYRAFDYWGQGTQVTVSS | high polyreactivity
15 | QVQLVESGGGLVQAGGSLRLSCAASGRIFHGNAMGWYRQAPGKEREMVAAITSGGRTFYADSVKGRFTISRDNAKNTVYLQMNSLIPEDTAVFYCNAPSIAGYAEYNSHDYWGQGTQVTVSS | high polyreactivity
16 | QVQLVESGGGLVQAGGSLRLSSAASGRIFPRYGMGWYRQAPGKERELVAAISIGGSTHYADSVKGRFTISRDNAKNTVYLQMNSLKPEDTAVYYCNKDIYVYWLFRLGMGYWGQGTQVTVSS | low polyreactivity
17 | QVQLVESGGGLVQAGGSLRISCAASGRIFYGNAMGWYRQAPGKERELVAAIRRSGGSTYYADSVKGRFTISRDNAKNTVYLQMNSLKPEDTAVYYCNVDSGEFDYVWVYTYDYWGQGTQVTVSS | low polyreactivity
18 | QVQLVESGGGLVQAGGSLRLSCAAYGSTFYANAMGWYRQAPGKERELVAAISSGGSTYYADSVKGRFTISRYNAKNTVYLQMNSLKPEDTAVYYCAKPFYSYRYGFGYWGQGTQVTVSS | low polyreactivity
19 | QVQLVESGGGLVQAGGSLRLSCAASGRIFRWNAMGWYRQAPGKERELVAVISSGGSTNYADSVKGRFTISRDNAKNTVYLQMNSLKPEDTAVYYCAADEGYVWPYYGWGFGKYDYWGQGTQVTVSS | low polyreactivity
20 | QVQLVESGGGLVQAGGSLRLSCAASGSIFRTYVMGWYRQAPGKERELVAAISSSGGRTYYADSVKGRFTISRDNAKNTVYLLMNSLKPEDTAVYYCAAPRTSTRYRLTLQGVNQYDYWGQGTQVTVSS | high polyreactivity
21 | QVQLVESGGGLVQAGGSLRLSCAASGFIFYKYAMGWYRQAPGKERELVARISISGGRTYYADSVKGRFTISRDNAKNTVYLQMNSLKPEDTAVYYCATSPWWYGYAAYGMDYWGQGTQVTVSS | low polyreactivity
22 | QVQLVESGGGLVQAGGSLRLSCAASGSTFPNYPMGWYRQAPGKERELVAAITWSGGSTDYADSVKGRFTISRDNAKNTVYLQMNSLKPEDTAVYYCNADFGYWWDGRRYDYWGQGTQVTVSS | low polyreactivity

Row | Sequence | polyreactivity (PSR sort gate)
23 | QVQLVESGGGLVQAGGSLRLSCAAYGFTFKYYVMGWYRQAPGKERELVASISKRGGSTRYADSVKGRFTISRDNAKNTVYLQMNSLKPEDTAVYYCAAAFVRPPPYVGYSRFYYWGQGTQVTVSS | high polyreactivity
24 | QVQLVESGGGLVQAGGSLRLSCAASGSIFYKYGMGWYRQAPGKVRVLVAAIRASGDSTYYADSVKGRFTISRDNAKNTVYLQMNSQKPEDTAVYYCAARPNQSYYGLYYYWGQGTQVTVSS | low polyreactivity
25 | QVQLVESGGGLVQAGGSLRLSCAASGGIISTNAMGWYRQAPGKERDLVAAISRRGGSTYYADSVKGRFTISRDYAKNSVYLQMNCLKPEDTAVYYCNKYLRLFSYGRGYDYWGQGTQVTVSS | high polyreactivity
26 | QVQIVESGGCLVQAGGSLRLICAASGNTFRWYDMGWYIQAPRKEREFVADITVRGGSTYYADSVKGRFTISRDNAKNTVYLQMNCLKPEDTAVYYCAVDFRRYPGFDYWGQGTQVTVSS | low polyreactivity
27 | QVQLVESGGGLVQAGGSLRLSCAASGGIFWYYAMGWYRQAPGKERELVAAINSGGSTYYADSVKGRFTISRDNAKNTVYLQMNSLNPEDTAVYYCNTRYPFSRYDYWGQGTQVTVSS | low polyreactivity
28 | QVQLVESGGGLVQAGGSLRLSCAASGRIFVYNAMGWYRQAPGKERELVATISSGGSTNYADSVKGRFTISRDNAKNTVYLQMNSLKPEDTAVYYCAARFYVSNSRISARNYWGQGTQVTVSS | high polyreactivity
29 | QVQLVESGGGLVQAGGSLRLSCAASGFTFYNYAMGWYRQAPGKERELVAAISRSGRTYYADSVKGRFTISRDNAKNTVYLQMNSLKPEDTAVYYCAAGHGGDPGSGYWGQGTQVTVSS | high polyreactivity
30 | QVQLVESGGGLVQAGGSLRLSCAASGSTFYEYAMGWYRQAPGKERELVAAISSGGSTYYADSVTGRFTISRDNAKNTVYLLMNSLKPEDTAVYYCNADCQTYCGEYDYWGQGTQVTVSS | low polyreactivity
31 | QVQLVYSGGGLVQAGGSLRLSCAASGIIFGVNAMGWYRQAPGKERELVAAISSSGGSTYYADSVKGRFTISRDNAKNTVYLQMNSLKPEDTAVYYCAASYYHYAPFDYWGQGTQVTVSS | high polyreactivity
32 | QVQIVESGGGLVQAGGSLRLSCDASGFIFYYYAMGWYRQAPGKERELVATITSGGGSTYYADSVKGRFTISRDNAKNTVYLQMNSLKPEDTAVYYCAAKGPYYKSSRTGDYWGQGTQVTVSS | low polyreactivity
33 | QVQLVESGGGLVQAGGSLRLSCDASGFTFTAYAMGSYRQAPGKERELVAAINWSGSRTYYADSVKGRFTISRDNAKNTVYLQMNSLNPEDTAVYYCAAGWTSSRYDYWGQGTQVTVSS | high polyreactivity
34 | QVQLVESGGGLVQAGGSLRLSCAASGSTSRYYDMGWYRQAPGKERELVAAITWSGGTTYYADSVKGRFTISRDNAKNTVYLQMDSLKPEDTAVYYCAVDSQTANDYDYWGQGTQVTVSS | low polyreactivity
35 | QVQLVESGGGLVQAGGSLRLSCAASGFIFGRYAMGWYRQAPGKERELVAAITASGGRTYYADSVKGRFTISRDNAKNTVYLQMNSLKPEDTAVYYCNTPSLWCGEDYWGQGTQVTVSS | high polyreactivity
36 | QVQLVESVGGLVQAGGSLRLSSAASGRTFYFYTMGWYTQAPGKERELVATIRWSAGSTYYADSVKGRFTISRDNAKNTVYLQMNSLKPEDTAVYYCNADPYVYSSWQYGYWGQGTQVTVSS | high polyreactivity
37 | QVQRQESGGGLVQAGDSQRLSCAPSGNIFRFTDMGWYRQAPGQERELVAAINAGSTTYYADSVKGRFTISRDNAKNTVYLQMNSLKPEDTAVYYCAVYYLGSGTFGYWGQGAQVTVSS | high polyreactivity
38 | QVQLVESGGGLVQAGGSLRLSCAASGRTFHYNAMGWYRQAPGKERELVAAISFNGGGTYYADSVKGRFTISRDNAKNTVYLQMNSLKPEDTAVYYCNVDAAGSNSHARHDSWGQGTQVTVSS | low polyreactivity
39 | QVQLVESGGGLVQAGGSLRLSCAASGSTFYLYAMGWYRQAPGKERELVAAIRGGGITNYADSVKGRFTISRDNAKNTVYLQINSLKPEDTAVYYCAADSTLRGFDYWGQGTQVTVSS | high polyreactivity
40 | QVQLVESGGGLVQAGGSLRLSCAASGAIFFFNAMGWYRQAPGKEREFVAAITSSSGRTYYADSVKGRFTISRDNAKNSVYLQMNSLKPEDTAVYSCDADWAWLQWAYDYWGQGTKVTVSS | low polyreactivity
41 | QVQLVESGGGLVQAGGSLRLSCAASGITFWFYAMGWYRQAPGKERELVADITSGGSTYYADSVKGLFTISRDNAKNTVYLQMNSLKPEDTAVYYCAADSWDSLAGLWDWNGPYYYWGQGTQVTVSS | low polyreactivity
42 | QVQLVESGGGLVQAGGSLRLSCAASGRIFPLNAMGWYRQAPGKERELVAAIRNGGRTNYADSVKGRFTISPDNAKNTVYVQMNSLKPEDTAVYYCSFTLSSVLQYDSWGQGTQVTVSS | low polyreactivity
43 | QVQLVESGGGLVQAGGSLRLSCAASGLTFDYYAMGWYRQAPGKERELVAAIDWSGGSTYYADSVKGRFTISRDNAKNTVYLQMNSLKPEDTAVYYCATESDDSGMDYWGQGTQVTVSS | low polyreactivity
